Measured values taken from publication PMC6498484.

molecular target: T1, PoxCxrA17-150 (Penicillium oxalicum HP7-1) (UniProt A0A2H4WV05); test: EMSA; conditions: EMSA: 20 mM Tris-HCl pH 8.0, 50 mM KCl, 0.1 mg/mL BSA, 5% glycerol, 1 mM DTT, 1 ug salmon sperm DNA, ~50 ng probe, 30 min at 30 C; footprinting at 30 C
T1 sequence: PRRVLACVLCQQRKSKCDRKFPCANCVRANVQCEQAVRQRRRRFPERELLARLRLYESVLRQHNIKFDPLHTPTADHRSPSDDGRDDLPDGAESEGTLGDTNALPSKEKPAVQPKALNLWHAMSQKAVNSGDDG

Question: With “CCCCTTTCATCAGATCCTCAAAGAACAAAATTGATCATCATCTCTTTTGATCTTTGATCCAATCCATCACA (double strand) [PBM1 probe]” as the sequence, how does the binding read?
Answer: The binding was “binds”.

Question: Which binding does the source give for “TGGGGGGAGGAGGAGGTGAGCAGCAAAAGAAGCAGAAGAGCACCGAACGATCAACGATCACGATCTGACGATGTGAAGAAAAAGAGGGTCAACGGGGAGACTAAGAGTGCGACGGCGGATAGTCAAGACGGAAGCGAACCTCCATAAAACACGATGGCCAGGAGGAAGGGAAAAAAAAAATTAAGGAGCCTTATCCACTTTCACGACTCTCCCCTCCCCGCAATTCCAGGGAAGCCGGTCTTGGTTGAATTGTTGGCCAACTGTTTTTCATTTGTTCGTCTCCT (double strand) [PoxClrB-284]” here?
Answer: Its binding is “no binding”.

Question: How did the binding turn out when “AGGATCTGATGAAAGGGGGGTGGTGGAGGAGATGAGGAAGGAATGGATGATGAACACCAGAGTCGAGGTGATGGCACCTCTTCTTATATAGTTGCTTCCTTGGGTGGATCCTGAAGCAATTCGCCTCTC (double strand) [PBM_POX05587-6']” was run?
Answer: The binding was “binds”.

Question: Which binding does the source give for “AGGAGACGAACAAATGAAAAACAGTTGGCCAACAATTCAACCAAGACCGGCTTCCCTGGAATTGCGGGGAGGGGAGAGTCGTGAAAGTGGATAAGGCTCCTTAATTTTTTTTTTCCCTTCCTCCTGGCCATCGTGTTTTATGGAGGTTCGCTTCCGTCTTGACTATCCGCCGTCGCACTCTTAGTCTCCCCGTTGACCCTCTTTTTCTTCACATCGTCAGATCGTGATCGTTGATCGTTCGGTGCTCTTCTGCTTCTTTTGCTGCTCACCTCCTCCTCCCCCCAGCTGAGTCCTT (double strand) [PoxClrB-295]” here?
Answer: Its binding is “binds”.

Question: With “GGTGAGCAGCAAAAGAAGCAGAAGAGCACCGAACGATCAACGATCACGATCTGACGATGTGAAGAAAAAGAGGGTCAACGGGGAGACTAAGAGTGCGACGGCGGATAGTCAAGACGGAAGCGAACCTCCATAAAACACGATGGCCAGGAGGAAGGGAAAAAAAAAATTAAGGAGCCTTATCCACTTTCACGACTCTCCCCTCCCCGCAATTCCAGGGAAGCCGGTCTTGGTTGAATTGTTGGCCAACTGTTTTTCATTTGTTCGTCTCCT (double strand) [PoxClrB-270]” as the sequence, how does the binding read?
Answer: Its binding is “no binding”.

Question: How did the binding turn out when “GAGAGGCGAATTGCTTCAGGATCCACCCAAGGAAGCAACTATATAAGAAGAGGTGCCATCACCTCGACTCTGGTGTTCATCATCCATTCCTTCCTCATCTCCTCCACCACCCC (double strand) [PBM2 probe]” was run?
Answer: The binding was “no binding”.

Question: With “TGTGATGGATTGGATCAAAGATCAAAAGAGATGATGATCAATTTTGTTCTTTGAGGATCT (double strand) [PBM_POX05587-3]” as the sequence, how does the binding read?
Answer: Its binding is “binds”.

Question: “GACTCAGCTGGGGGGAGGAGGAGGTGAGCAGCAAAAGAAGCAGAAGAGCACCGAACGATCAACGATCACGATCTGACGATGTGAAGAAAAAGAGGGTCAACGGGGAGACTAAGAGTGCGACGGCGGATAGTCAAGACGGAAGCGAACCTCCATAAAACACGATGGCCAGGAGGAAGGGAAAAAAAAAATTAAGGAGCCTTATCCACTTTCACGACTCTCCCCTCCCCGCAATTCCAGGGAAGCCGGTCTTGGTTGAATTGTTGGCCAACTGTTTTTCATTTGTTCGTCTCCT (double strand) [PBM_PoxClrB-3']” was tested. Which binding did it give?
Answer: Its binding is “binds”.

Question: For “AGGAGACGAACAAATGAAAAACAGTTGGCCAACAATTCAACCAAGACCGGCTTCCCTGGAATTGCGGGGAGGGGAGAGTCGTGAAAGTGGATAAGGCTCCTTAATTTTTTTTTTCCCTTCCTCCTGGCCATCGTGTTTTATGGAGGTTCGCTTCCGTCTTGACTATCCGCCGTCGCACTCTTAGTCTCCCCGTTGACCCTCTTTTTCTTCACATCGTCAGATCGTGATCGTTGATCGTTCGGTGCTCTTCTGCTTCTTTTGCTGCTCACCTCCTCCTCCCCCCAGCTGA (double strand) [PBM_PoxClrB-6']”, which binding is on record?
Answer: Its binding is “binds”.

Question: With “TGTGATGGATTGGATCAAAGATCAAAAGAGATGATGATCAATTTTGTTCTTTGAGGA (double strand) [PBM_POX05587-6]” as the sequence, how does the binding read?
Answer: Its binding is “binds”.

Question: Which binding does the source give for “TTGAGGATCTGATGAAAGGGGGGTGGTGGAGGAGATGAGGAAGGAATGGATGATGAACACCAGAGTCGAGGTGATGGCACCTCTTCTTATATAGTTGCTTCCTTGGGTGGATCCTGAAGCAATTCGCCTCTC (double strand) [PBM_POX05587-3']” here?
Answer: The binding was “binds”.
